Test results from the DeepSol protein solubility set.

Assay: soluble on expression in E. coli; label from the status in PepcDB or PDB records

Soluble on expression in E. coli, not soluble:
MGSDKIHHHHHHMQNATLPLPLQSPLLAASGENRVRHGFFTRQGGVSEGLYQGLNVGLGSHDEPEKVQENRRRVTQWFGLSADRLATVHQVHSPDVVVVDDNYDGNRPQADAMVTATPGFVLGVLSADCGPILFADAQAGVVGAAHAGWKGALFGVLENTIEAMVKLGASRERIAASLGPSISQDNYEVGPEYVARFTDIDPAYADYFAATERQGHALFDLKQFTIDRLTKAGVKAENLGLCTYPDEHRFYSYRRTTHRAEPDYGRQISAIAILED
MGSDKIHHHHHHMQNKNKTVVKSMALLNLFLHKPSLTLSELVSLTGMPKTSVHRMVSSLEEMGFLSRDASGAYSLGLVFLEFGQLVADRLDIRKIAKPVMEELCREVDEAVQLIMRDGNEAIYVEKIEGTQTVRLYTAIGRRSPLYAGACARSILSFLPREEIEAYIKQTELISIGSGTITDPEKLLQEIDASVQNGYTVSYSELENYTAAIGAPIFNHERQVAAGISIAGFEARFTEDRLPYLTEKVKDAALQISRK
MGSDKIHHHHHHMQNLDALLIFARVAEMTSFTRAAESLGIQKGRVSMVIRKLERDVGVALLHRTTRSVQLTEDGRAFYSRARDLLAEVQELQSMFSGNGTRLRGRLRVDMPTELARSVVVPALPQLMAAHPELELELSSTDRRVDLVQEGFDCVIRLGPITDDTLIARPLGKLRMTNAASPGYLARYGIPHTLDDLRTQGHRMVHYTLTLGARHPGWEYPNGDGYASLPLPSAMQVNSVQTYHAAGLAGIGLIQAGYSALAHHIESGALVEVLPDLRPEPLAASLVVAHRRNLSPRVRAFMDWIEGVLAPYLD
MGSDKIHHHHHHMQNPPPPFNQNHLLAALPPAELERLKPHLELVHMPLGDVLCESGGRLSYVYFPTSAIISLHYILENGSSSEVAGVGNEGLLGISLFMGGENTPTWATVQTAGYCYRLKGPLLLQEFNQGGPLQRVLLRYTQALITQISQTAVCNRHHTIEQQLCRWLLLTLDRLNSQELVMTQELIASMLGVRREGITEAAGKLQQAEIIRYRRGHITVLNRAGLEGHVCECYEVVKKEFERLFRDVKKS
MGSDKIHHHHHHMQSFKIIKPIHILTPYVRYYWILEDGADVSVSERTLPTGCIQLVFHRGKRLLLVGKKESQPQAFICGQCLNFSDVMSAGKIEMITVVFQPYAARAILQLPLKFFYGELIAVDAIADLELSILSRKVIEADDHETCIRLIEQFLIHRLYRFEGYEYNLKRISAVLHQINEQAKTNISELSETACLSSKQFNRIFLDYVGATPKEFLRIVRMQRALFKVQQNPSISFAQLAYECGFSDQSHMIKEFKLFSGYTPTEYLSLCAPYSDYFSE
MGSDKIHHHHHHMQSQELERIARQIRLRDVQAVFEAGAGHVGGEMSAIDIMTALYFRVLRIWPNDPKNPARDRFVLSKGHTACALYVTLAKRGFIPEEEISTFLQPNSRLNGHPNCNKVPGVETNTGPLGHGLPVAVGMATAAKLSGEDYHTYVMTGDGEMQEGSNWEAIMSAAQFKLNNLTLVIDHNRFQQGAAIADTNDVAPLRPKLEAFGWEVTEINGNAMAEVVPALEHRGNRPHCIVAHTNKGHGISFMQDRVDWHHKVPSKEQYEIAVKELSEAL
MGSDKIHHHHHHMQWTEEQLPAIHSFAKKLLVQAFAGTGKTTTLVGYATHNSSVKMLYLCYNKAVEIAAKNRFPRNVTCKTAHGLAYAVYGSQYKHKQAGNLRLTDIARTINTQDWELAKDIVSTLNAFMASKDLELLEDHFVRFQSNRTLTSVQQQYMSKALNLTRDVWDKMVDIQDRSVSMTHDGYLKLYQMSQPDLSQRFGAILLDEGQDVNPVIANLVQIQKITQVTVGDRHQQLYRFRGAVDALNSPAMKDAEKHFLTQSFRFGPAVAYVANVILSFKGEKIPLQGLGQPTLVKRALPEDLPHRTYLHRTVSGVIENALRLVNQDHRMQWIGGIDSYSLRDLEDLFYFSRHMNDQVQQRKLLTDYADYDQYVVIAKATQDPEMLRSIKMIENYPDLPKRIEQLRGASVTSELDATVTLSTAHRAKGLEWDFVGLYDDFSADPLSPDIDAGKRDDELNLLYVAVTRAMKILAVNSLVIDIMQRFKDMKQRSRP
MGSDKIHHHHHHMQYTELVPGTLIRRYKRFLADVALASGDVVVAHCPNTGSMRAVDVPGCRVWLSPSRNPARKLAWTWELIELPMPDAPPALVSVHTGRANALVAQALQEARIPELAGYDTHKREVRVADARLDFRLSTAHAAAYVEVKQVTLREHDGHGYFPDSVSERGRRHLEALAARVAEGDRAVLLFCVAHTGIDAVAPAAHLDPAYAETLRRVAAQGVEVLAYGMSATWTHDGVPGDIALTRALPVSLERRLASATPLSD
MGSDKIHHHHHHMRAVTAQAITEAVAKLCKEACYYVTPDMYAAFKKAEETEVSPLGKHILGRIIENADIAKREDMPICQDTGMTVVFVEIGQEVKIEGGYIEDAINAGVAKGYTEGYLRKSVVGEPLFNRANTKDNTPAVIHTRIVPGDKLKLKVCPKGFGSENKSVLKMLVPADGLEGVKKVFLEAVKLAGPNACPPMVIGVGIGGTMEKAAILAKKAAVRSVDSYNEHPDYAQLEKDLLEMACATGVGPQGLGGINTAVKVNIEWYPTHIAGLPVAVNINCHAARHADVTL
MGSDKIHHHHHHMRDSTQLPVTRRMLPSLYQSICLILCSQNLSGINLSGISPSSISLGPSTLFRHTRLSQRLAKFQIPRPIKHQSQRFSIFALACFVAATLSGCANSLETCARTELKLTWAEPAELQATVTILSSDEFEGRKTQTQGAAKSRDYIKQQFESLNLQPWGADFIVPFEYQTFFTQETGANVVATAMATEPTNRWRIIVAHYDHLGMSGSKIYHGADDNASGVAAMLAIAKHWQQQFALQPNTLPKVNLMFVATDAEEPGLYGSIALVEQLKTRLPEATFELMINLDMVSHPGRPYGIYLEGSRNFTQFNQFKSLLNQQNRLCIKLTHPKPVGRSIQSTDWLRASDHYPFHKANIPWLYFGVPTHPQYHTPEDTVATIDITFLAAVTESAFELLQLNAEYLKN
MGSDKIHHHHHHMREKIKLELERIEKENDVKILFAVESGSRVWGFPSKDSDYDVRFVYMHPVEWYLSIHDKRDVIEYPISDDLDISGWDIKKALQLFAKSNPALLEWIRSPIFYSKNSNFPEQLQQMSEKNFDPKATIYHYLHMASKNYREFLQGENVKLKKYFYVLRPILACKWLEEKTTLPPVEFDRLITELSIERSVLDEIEQLLIKKKAGTELDVGLKIEVLNQFLEEQIHYYQQYVKGIEKGSGIDIESLNTLFRDMLFAVYEKEHK
MGSDKIHHHHHHMRGCFSVTGVEDVCERLGVPCVPLDDPVEVSGEVFQKIKISRKVLEADKVVNLPKLKTHSQMVMTLGVKNTFGCVVGLEKSSWHMRAKNYDDFANLLIDIHRIVSPVLTILDGVEGMEGNGPTNGKKKHFGLVAVSKNAFALDDAVCKALGIDHVVYTVQHARKRRVVPDYEIVGTFHASIQLPSTVSTLDRLSRTFSRFFVKYPKIDTRKCVKCRLCEERCPASAIDISSQRIDYQKCIRCYVCHEVCPQDAIKLVRRLV
MGSDKIHHHHHHMRGRCPVSRAMMPTGPSGVEVSSVEMPGTKGVSVNLTRSLDGTVFTTLTRLSESVDMIDLVNEAVVQSLDEIAGYEAQLPSAKIATAMCFRAMQSITDYAPTTIEAADRLISNAYEIDPQPVFLAWRAYLRTFLLGESGGGNSQAISEEMERFINLAEEREPGNSIILSLAAFIRSMWLLSSEDALDLAQRSHALNPSNPYGISYLGMVHTHLGNFEEGYRLTRRANALTVPRGAKSSIRYVAMRSAACAGRYTEAIKIGEALGRDAPHFVAPKRLMGLLYMKCGRVADAEAMVETLRQHEPDYSMEKMRDAFRASPLLHRSKLGKAG
MGSDKIHHHHHHMRHLKAFYVFHITAESSSYSQAAEKLHITHGAVSKQIKLLENHLSQILFYKQGRGMCLTQEGELLKRYTDIAFNTLDSGVKQLTRESHHYLEVSCEPTLTMRWLMPRLASFFQLTGIDVRLSTAGGPVKLAESGLSLAIRRDDFHIPPEYNKHNLVSEWAGPVFSPEYWCQIQQNWGDIVLLHSDSRPSAWSDWSQRSGHNFSTNKSKSFEHFYFCLQAAVDGLGGAIGSYPLIVDDLTSGRLVAPFGFIPSGHHYVLLSHTEKLVNNELSFFNWLEDTLSLCQPKTAKAAKPV
MGSDKIHHHHHHMRHTAVLLISCPDQRGLVAAIADFLLAHRANILHADQHQDAELKLFLMRVEWDLAGFNLDLRDFATAFQPIAERFGMTWRLAESSRKPRMAVFVSKFDHCLADLLYRYQSGELHCELPIILSNHEDTRWLADAYRVPYQHMAVTKESKHETEQIQLAILRDQKIDFIVLARYMQVLSGDFIRHFPNRIINIHHSFLPAFHGAKPYHRAFERGVKLIGATAHYVTETLDDGPIIEQDVARISHRDHIDDLIHKGADLEKVVLSRAVKWHLDNRVLVYANKTVVFD
MGSDKIHHHHHHMRIDTVNVLLEALPYIKEFYGKTFVIKFGGSAMKQENAKKAFIQDIILLKYTGIKPIIVHGGGPAISQMMKDLGIEPVFKNGHRVTDEKTMEIVEMVLVGKINKEIVMNLNLHGGRAVGICGKDSKLIVAEKETKHGDIGYVGKVKKVNPEILHALIENDYIPVIAPVGIGEDGHSYNINADTAAAEIAKSLMAEKLILLTDVDGVLKDGKLISTLTPDEAEELIRDGTVTGGMIPKVECAVSAVRGGVGAVHIINGGLEHAILLEIFSRKGIGTMIKELEG
MGSDKIHHHHHHMRINPGEITKVLEEKIKSFEEKIDLEDTGKVIQVGDGIARAYGLNKVMVSELVEFVETGVKGVAFNLEEDNVGIIILGEYKDIKEGHTVRRLKRIIEVPVGEELLGRVVNPLGEPLDGKGPINAKNFRPIEIKAPGVIYRKPVDTPLQTGIKAIDSMIPIGRGQRELIIGDRQTGKTAIAIDTIINQKGQGVYCIYVAIGQKKSAIARIIDKLRQYGAMEYTTVVVASASDPASLQYIAPYAGCAMGEYFAYSGRDALVVYDDLSKHAVAYRQLSLLMRRPPGREAYPGDIFYLHSRLLERAVRLNDKLGGGSLTALPIVETQANDISAYIPTNVISITDGQIYLEPGLFYAGQRPAINVGLSVSRVGGSAQIKAMKQVAGMLRIDLAQYRELETFAQFATELDPATRAQIIRGQRLMELLKQEQYSPMPVEEQVVVLFAGVRGYLDDLPVEEVRRFEKEFLRFMHEKHQDILDDIKTKKELTSETEEKLKKAIEEFKTTFRV
MGSDKIHHHHHHMRKERDYLGKLEIEGEVYYGIHTKRALMNFPSTGEKLDETFIWAYFMVKKACALLNTELGYLDERTGNAIVKACDEWEDLKKHVVVDPLSGGAGTSINMNVNEVIANRATEILGGKKGEYLVDPIDHVNLHQSTNDTFPTSAKIATIVKLRRLIDEVINLQEKIQEKEKEFYSIRKPGRTQLMDGPPIMLGQEFGAFADALARDRWRLYKVEERIRSVNIGGTAIGTGVGAPKDYILKIVEKVREVTKVKIAKAENLIDATQNWDVFAEVHGLLKSLAVNLYKISNDIRLLGSGPNTVIGELILPAVQAGSSIMPGKINPVVSEYVMQICHMVFGHDMILNHACALGNLELNQFAPLIVHLTLKSLTLLTNACRSLASYISKIKANNERCEEHLRRSVSNLTPLIKLFGYEAVSEAIKKANWDIKKAVEILSQEKNIPVEEILKVLNLKKMTGLGYSL
MGSDKIHHHHHHMRKKSLTLLSDGYLFRKENTIYFENARGKKPLAIEGIYDIYIYGKVSISSQALHYLAQKGIALHFFNHYGYYDGSFYPRESLHSGYLVVNQVEHYLDKDKRLELAKLFIIGGIKNMEWNLLKFKNKTKFSSYIEELNNCNKITEVMNVEGRVRTEYYRLWDETLPDDFKIVKRTRRPPKNEMNALISFLNSRLYPAIITELYNTQLTPTVSYLHEPHERRFSLALDLSEIFKPMIADRLANRLVKQGIIQKKHFRDDLNGVLLNKEGMKVVLEHFNKEMDKTVNHKKLKKNVSKRRLIRLEAYKLVKHLVGQKRYEPLVAWF
